Laboratory results published in patent publication US20260184814A1 (HUMABS BIOMED, published 2026).

Key:
N1 [1] = assay: ELISA on N1 NA
N1 [2] = assay: Bio-Layer Interferometry (BLI)
N1 [3] = assay: Bio-Layer Interferometry (BLI); printed as kdis
[4] = target: N8 A/HARBOR SEAL/NEW …/179629/2011 (Influenza A virus); assay: flow cytometry, NA transiently expressed on Expi-CHO cells
[5] = target: N9 neuraminidase from A/Anhui/1/2013 (Influenza A virus A/Anhui/1/2013 (H7N9)); assay: as above
[6] = target: N6 neuraminidase from A/swine/Ontario/01911/1/99 (Influenza A virus …); assay: as above
[7] = target: T1, N2 neuraminidase from A/Washington/01/2007 (Influenza A virus A/Washington/01/2007); assay: as above
T1 construct: whole, on cells

[8] = target: T2, N2 neuraminidase from A/Leningrad/134/17/57 (Influenza A virus A/Leningrad/134/17/57, UniProt Q67214 1-469); assay: as above
[9] = target: IBV neuraminidase from B/Lee/10/1940 (Ancestral) (Influenza B virus B/Lee/10/1940, UniProt P03474 1-466); assay: as above
[10] = target: T2, N2 neuraminidase from …; assay: flow cytometry, NA on cells

Binder | binding result [10] | also measured
FNI3 (antibody, V domains shown) VH: QVQLVQSGAEVKRPGSSVKVSCKASGATFSNNVIAWVRQAPGQGLEWMGGIHPISATATYAQKFQGRVAIAADELTSTAYMELNGLRSEDSAVYYCARAGSDYFNRDLGWENYYFDSWGQGTLVTVSS VL: EILMTQSPATLSVSPGERATLSCRASQDVSGNLAWYQQRPGQAPRLLIYGASTRATGVPARFTGAGSGTEFTLTISSLQSEDFALYYCQHYNNWPPWTFGQGTKVEIK |  | EC50 (read off the curve) (N1 [1]): ~0.007 µg/mL; Kd (N1 [2]): < 1 pM; kon (N1 [2]): 39500 M⁻¹ s⁻¹; koff (N1 [3]): < 1e-07 s⁻¹; lowest concentration at which binding was observed (EC50 scale class) [4]: 50 µg/mL; lowest concentration at which binding was observed (EC50 scale class) [5]: 0.4 µg/mL; lowest concentration at which binding was observed (EC50 scale class) [6]: 0.4 µg/mL; lowest concentration at which binding was observed (EC50 scale class) [7]: 10 µg/mL; lowest concentration at which binding was observed (EC50 scale class) [8]: 0.4 µg/mL; lowest concentration at which binding was observed (EC50 scale class) [9]: 0.4 µg/mL
FNI9 (antibody, V domains shown) VH: QVHLVQSGAEVKEPGSSVTVSCKASGGSFNNQAISWVRQAPGQGLEWMGGIFPISGTPTSAQRFQGRVTFTADESTTTVYMDLSSLRSDDTAVYYCARAGSDYFNRDLGWENYYFASWGQGTLVTVSS VL: EIVMTQSPATLSLSSGERATLSCRASRSVSSNLAWYQQKPGQAPRLLIYDASTRATGFSARFAGSGSGTEFTLTISSLQSEDSAIYYCQQYNNWPPWTFGQGTKVEIK |  | lowest concentration at which binding was observed (EC50 scale class) [8]: 0.4 µg/mL; lowest concentration at which binding was observed (EC50 scale class) [9]: 0.4 µg/mL
FNI9-v8.1 (antibody, V domains shown) VH: QVHLVQSGAEVKEPGSSVTVSCKASGGTFNNQAISWVRQAPGQGLEWMGGIFPISGTPTSAQRFQGRVTFTADESTTTVYMDLSSLRSDDTAVYYCARAGSDYFNRDLGWENYYFASWGQGTLVTVSS VL: EIVMTQSPATLSLSSGERATLSCRASRSVSSNLAWYQQKPGQAPRLLIYDASTRATGFSARFAGSGSGTEFTLTISSLQSEDSAIYYCQQYNNWPPWTFGQGTKVEIK | binds | 
v4.1 (antibody, V domains shown) VH: QVHLVQSGAEVKEPGSSVTVSCKASGGSFSNQAISWVRQAPGQGLEWMGGIFPISGTPTSAQRFQGRVTFTADESTTTVYMDLSSLRSDDTAVYYCARAGSDYFNRDLGWENYYFASWGQGTLVTVSS VL: EIVMTQSPATLSLSSGERATLSCRASRSVSSNLAWYQQKPGQAPRLLIYDASTRATGFSARFAGSGSGTEFTLTISSLQSEDSAIYYCQQYNNWPPWTFGQGTKVEIK | binds | 
v4.7 (antibody, V domains shown) VH: QVHLVQSGAEVKEPGSSVTVSCKASGGSFSNQAISWVRQAPGQGLEWMGGIFPISGTPTSAQRFQGRVTFTADESTTTVYMDLSSLRSDDTAVYYCARAGSDYFNRDLGWENYYFASWGQGTLVTVSS VL: EIVMTQSPATLSLSSGERATLSCRASRSVSSNLAWYQQKPGQAPRLLIYDASTRATGFSARFAGSGSGTEFTLTISSLQSEDSAIYYCQQYNIWPPWTFGQGTKVEIK | binds | 
v5.1 (antibody, V domains shown) VH: QVHLVQSGAEVKEPGSSVTVSCKASGGSFNKQAISWVRQAPGQGLEWMGGIFPISGTPTSAQRFQGRVTFTADESTTTVYMDLSSLRSDDTAVYYCARAGSDYFNRDLGWENYYFASWGQGTLVTVSS VL: EIVMTQSPATLSLSSGERATLSCRASRSVSSNLAWYQQKPGQAPRLLIYDASTRATGFSARFAGSGSGTEFTLTISSLQSEDSAIYYCQQYNNWPPWTFGQGTKVEIK | binds | 
v5.7 (antibody, V domains shown) VH: QVHLVQSGAEVKEPGSSVTVSCKASGGSFNKQAISWVRQAPGQGLEWMGGIFPISGTPTSAQRFQGRVTFTADESTTTVYMDLSSLRSDDTAVYYCARAGSDYFNRDLGWENYYFASWGQGTLVTVSS VL: EIVMTQSPATLSLSSGERATLSCRASRSVSSNLAWYQQKPGQAPRLLIYDASTRATGFSARFAGSGSGTEFTLTISSLQSEDSAIYYCQQYNIWPPWTFGQGTKVEIK | binds | 
v6.1 (antibody, V domains shown) VH: QVHLVQSGAEVKEPGSSVTVSCKASGGSFNNQAISWVRQAPGQGLEWMGGIFPISGTPTSAQRFQGRVTFTADESTTTVYMDLSSLRSDDTAVYYCARAGSEYFNRDLGWENYYFASWGQGTLVTVSS VL: EIVMTQSPATLSLSSGERATLSCRASRSVSSNLAWYQQKPGQAPRLLIYDASTRATGFSARFAGSGSGTEFTLTISSLQSEDSAIYYCQQYNNWPPWTFGQGTKVEIK | binds | 
v6.7 (antibody, V domains shown) VH: QVHLVQSGAEVKEPGSSVTVSCKASGGSFNNQAISWVRQAPGQGLEWMGGIFPISGTPTSAQRFQGRVTFTADESTTTVYMDLSSLRSDDTAVYYCARAGSEYFNRDLGWENYYFASWGQGTLVTVSS VL: EIVMTQSPATLSLSSGERATLSCRASRSVSSNLAWYQQKPGQAPRLLIYDASTRATGFSARFAGSGSGTEFTLTISSLQSEDSAIYYCQQYNIWPPWTFGQGTKVEIK | binds | 
v7.1 (antibody, V domains shown) VH: QVHLVQSGAEVKEPGSSVTVSCKASGGSFNNQAISWVRQAPGQGLEWMGGIFPISGTPTSAQRFQGRVTFTADESTTTVYMDLSSLRSDDTAVYYCARAGSDYFNRDLGWEQYYFASWGQGTLVTVSS VL: EIVMTQSPATLSLSSGERATLSCRASRSVSSNLAWYQQKPGQAPRLLIYDASTRATGFSARFAGSGSGTEFTLTISSLQSEDSAIYYCQQYNNWPPWTFGQGTKVEIK | binds | 
v7.7 (antibody, V domains shown) VH: QVHLVQSGAEVKEPGSSVTVSCKASGGSFNNQAISWVRQAPGQGLEWMGGIFPISGTPTSAQRFQGRVTFTADESTTTVYMDLSSLRSDDTAVYYCARAGSDYFNRDLGWEQYYFASWGQGTLVTVSS VL: EIVMTQSPATLSLSSGERATLSCRASRSVSSNLAWYQQKPGQAPRLLIYDASTRATGFSARFAGSGSGTEFTLTISSLQSEDSAIYYCQQYNIWPPWTFGQGTKVEIK | binds | 
v8.7 (antibody, V domains shown) VH: QVHLVQSGAEVKEPGSSVTVSCKASGGTFNNQAISWVRQAPGQGLEWMGGIFPISGTPTSAQRFQGRVTFTADESTTTVYMDLSSLRSDDTAVYYCARAGSDYFNRDLGWENYYFASWGQGTLVTVSS VL: EIVMTQSPATLSLSSGERATLSCRASRSVSSNLAWYQQKPGQAPRLLIYDASTRATGFSARFAGSGSGTEFTLTISSLQSEDSAIYYCQQYNIWPPWTFGQGTKVEIK | binds | 
v9.1 (antibody, V domains shown) VH: QVHLVQSGAEVKEPGSSVTVSCKASGGSFNNQAISWVRQAPGQGLEWMGGIFPISGTATSAQRFQGRVTITADESTTTVYMDLSSLRSDDTAVYYCARAGSDYFNRDLGWENYYFASWGQGTLVTVSS VL: EIVMTQSPATLSLSSGERATLSCRASRSVSSNLAWYQQKPGQAPRLLIYDASTRATGFSARFAGSGSGTEFTLTISSLQSEDSAIYYCQQYNNWPPWTFGQGTKVEIK | binds | 
v9.7 (antibody, V domains shown) VH: QVHLVQSGAEVKEPGSSVTVSCKASGGSFNNQAISWVRQAPGQGLEWMGGIFPISGTATSAQRFQGRVTITADESTTTVYMDLSSLRSDDTAVYYCARAGSDYFNRDLGWENYYFASWGQGTLVTVSS VL: EIVMTQSPATLSLSSGERATLSCRASRSVSSNLAWYQQKPGQAPRLLIYDASTRATGFSARFAGSGSGTEFTLTISSLQSEDSAIYYCQQYNIWPPWTFGQGTKVEIK | binds | 
v11.1 (antibody, V domains shown) VH: QVHLVQSGAEVKEPGSSVTVSCKASGGSFNNQAISWVRQAPGQGLEWMGGIFPISGTATYAQRFQGRVTITADESTTTVYMDLSSLRSDDTAVYYCARAGSDYFNRDLGWENYYFASWGQGTLVTVSS VL: EIVMTQSPATLSLSSGERATLSCRASRSVSSNLAWYQQKPGQAPRLLIYDASTRATGFSARFAGSGSGTEFTLTISSLQSEDSAIYYCQQYNNWPPWTFGQGTKVEIK | binds | 
v11.7 (antibody, V domains shown) VH: QVHLVQSGAEVKEPGSSVTVSCKASGGSFNNQAISWVRQAPGQGLEWMGGIFPISGTATYAQRFQGRVTITADESTTTVYMDLSSLRSDDTAVYYCARAGSDYFNRDLGWENYYFASWGQGTLVTVSS VL: EIVMTQSPATLSLSSGERATLSCRASRSVSSNLAWYQQKPGQAPRLLIYDASTRATGFSARFAGSGSGTEFTLTISSLQSEDSAIYYCQQYNIWPPWTFGQGTKVEIK | binds | 
v12.1 (antibody, V domains shown) VH: QVHLVQSGAEVKEPGSSVTVSCKASGGSFNNQAISWVRQAPGQGLEWMGGIFPISGTANYAQRFQGRVTITADESTTTVYMDLSSLRSDDTAVYYCARAGSDYFNRDLGWENYYFASWGQGTLVTVSS VL: EIVMTQSPATLSLSSGERATLSCRASRSVSSNLAWYQQKPGQAPRLLIYDASTRATGFSARFAGSGSGTEFTLTISSLQSEDSAIYYCQQYNNWPPWTFGQGTKVEIK | binds | 
v12.7 (antibody, V domains shown) VH: QVHLVQSGAEVKEPGSSVTVSCKASGGSFNNQAISWVRQAPGQGLEWMGGIFPISGTANYAQRFQGRVTITADESTTTVYMDLSSLRSDDTAVYYCARAGSDYFNRDLGWENYYFASWGQGTLVTVSS VL: EIVMTQSPATLSLSSGERATLSCRASRSVSSNLAWYQQKPGQAPRLLIYDASTRATGFSARFAGSGSGTEFTLTISSLQSEDSAIYYCQQYNIWPPWTFGQGTKVEIK | binds | 
